“Also recorded” adds a separate entry of the source.
B1: CYP2B6TM: human CYP2B6 triple mutant with substitutions I114V, L199M and V477W (SEQ ID No 1) (protein, listed as Homo sapiens)
chain: MELSVLLFLALLTGLLLLLVQRHPNTHDRLPPGPRPLPLLGNLLQMDRRGLLKSFLRFREKYGDVFTVHLGPRPVVMLCGVEAIREALVDKAEAFSGRGKIAMVDPFFRGYGVVFANGNRWKVLRRFSVTTMRDFGMGKRSVEERIQEEAQCLIEELRKSKGALMDPTFLFQSITANIICSIVFGKRFHYQDQEFLKMMNLFYQTFSLISSVFGQLFELFSGFLKYFPGAHRQVYKNLQEINAYIGHSVEKHRETLDPSAPKDLIDTYLLHMEKEKSNAHSEFSHQNLNLNTLSLFFAGTETTSTTLRYGFLLMLKYPHVAERVYREIEQVIGPHRPPELHDRAKMPYTEAVIYEIQRFSDLLPMGVPHIVTQHTSFRGYIIPKDTEVFLILSTALHDPHYFEKPDAFNPDHFLDANGALKKTEAFIPFSLGKRICLGEGIARAELFLFFTTILQNFSMASPVAPEDIDLTPQECGWGKIPPTYQIRFLPR
B2: CYP2B6wt: wild-type human cytochrome P450 2B6, without reductase (protein, UniProt P20813 1-491, looked up)
Cytochrome P450 2B6: MELSVLLFLALLTGLLLLLVQRHPNTHDRLPPGPRPLPLLGNLLQMDRRGLLKSFLRFREKYGDVFTVHLGPRPVVMLCGVEAIREALVDKAEAFSGRGKIAMVDPFFRGYGVIFANGNRWKVLRRFSVTTMRDFGMGKRSVEERIQEEAQCLIEELRKSKGALMDPTFLFQSITANIICSIVFGKRFHYQDQEFLKMLNLFYQTFSLISSVFGQLFELFSGFLKYFPGAHRQVYKNLQEINAYIGHSVEKHRETLDPSAPKDLIDTYLLHMEKEKSNAHSEFSHQNLNLNTLSLFFAGTETTSTTLRYGFLLMLKYPHVAERVYREIEQVIGPHRPPELHDRAKMPYTEAVIYEIQRFSDLLPMGVPHIVTQHTSFRGYIIPKDTEVFLILSTALHDPHYFEKPDAFNPDHFLDANGALKKTEAFIPFSLGKRICLGEGIARAELFLFFTTILQNFSMASPVAPEDIDLTPQECGVGKIPPTYQIRFLPR
B3: I114V/V477W: previously published CYP2B6 double active site mutant (Nguyen et al 2008) (protein, UniProt P20813 1-491, looked up, variant I114V V477W)
Cytochrome P450 2B6: MELSVLLFLALLTGLLLLLVQRHPNTHDRLPPGPRPLPLLGNLLQMDRRGLLKSFLRFREKYGDVFTVHLGPRPVVMLCGVEAIREALVDKAEAFSGRGKIAMVDPFFRGYGVVFANGNRWKVLRRFSVTTMRDFGMGKRSVEERIQEEAQCLIEELRKSKGALMDPTFLFQSITANIICSIVFGKRFHYQDQEFLKMLNLFYQTFSLISSVFGQLFELFSGFLKYFPGAHRQVYKNLQEINAYIGHSVEKHRETLDPSAPKDLIDTYLLHMEKEKSNAHSEFSHQNLNLNTLSLFFAGTETTSTTLRYGFLLMLKYPHVAERVYREIEQVIGPHRPPELHDRAKMPYTEAVIYEIQRFSDLLPMGVPHIVTQHTSFRGYIIPKDTEVFLILSTALHDPHYFEKPDAFNPDHFLDANGALKKTEAFIPFSLGKRICLGEGIARAELFLFFTTILQNFSMASPVAPEDIDLTPQECGWGKIPPTYQIRFLPR

Key:
[1] = tested on: TC1-Luc2 mouse pulmonary tumour cells; experiment: In vivo cytotoxicity assay, subcutaneous TC1 tumours in mice treated with CPA; conditions: CPA 140 mg/kg i.p., C57Bl6 mice, FIG. 14
Description: To test the capacity of the triple mutant to enhance the response to CPA in vivo, a mouse model was used. Mouse pulmonary tumour cells (TC1-Luc2) were infected with a lentivirus vector carrying the CYP2B6TM-RED construct and injected subcutaneously into C57Bl6 mice. As a control, uninfected TC1 cells-were injected. TC1-Luc2 cells express luciferase, permitting tumour size to be monitored via bioluminescence.
In initial experiments, 10 mice were injected with CYP2B6TM-RED-TC1 cells and 10 were injected with uninfected TC1 cells. Tumour growth was monitored, and when the tumour size reached approximately 400 mm^3 half of the mice were treated with CPA via intraperitoneal injection at 140 mg/kg. untreated mice were sacrificed when tumour volume reached around 1500 mm^3.

[2] = CPA 4-hydroxylase activity in yeast microsomes; assay type: biochemical; conditions: for Vmax of CPA-4' hydroxylation / Km / CPA hydroxylase activity Vmax: yeast microsomes; for Vmax of CPA-4' hydroxylation / Km: FIG. 9; for Km: read-out: Km of CPA-4' hydroxylation; for CPA hydroxylase activity Vmax: Table 1
From the text: CYP2B6 wt or CYP2B6TM alone or in fusion with RED were expressed in the MR) yeast strain, in which yeast NADPH cytochrome P450 reductase was constitutively expressed. The pYeDP60 plasmids were introduced into intact yeast cells based on a refined lithium acetate-mediated protocol as described in Truan et al, 1993, above. Yeast culture conditions were as described in Bellamine A, Gautier J C, Urban P, Pompon D (1994): Chimeras of the human cytochrome P450 1A family produced in yeast. Accumulation in microsomal membranes, enzyme kinetics and stability. Eur J Biochem 225:1005-13. Yeast microsomes were prepared based on the mechanical disruption method using glass beads as described in Bellamine A, Gautier J C, Urban P, Pompon D. (1994): Chimeras of the human cytochrome P450 1A family produced in yeast. Accumulation in microsomal membranes, enzyme kinetics and stability. Eur J Biochem 225:1005-13. The fluorometric determination of yeast microsomal CPA 4-hydroxylase was adapted from a technique described previously (Roy P, Yu […]. (1999): […] Drug Metab Dispos 27:655-66) for a 96-well microplate with several modifications. Incubations were carried out for 1 h at 28° C. in a total volume of 200 μl and included 100 mM sodium phosphate buffer, pH 7.4, 1 mM EDTA, 10 pmol of CYP2B6 wt or CYP2B6TM or CYP2B6TM-RED with different linkers (microsomal P450 content was spectrally determined by the method of Schoene […], von Oldershausen H F. (1972): Determination of drug metabolizing enzymes in needle biopsies of human liver. Eur J Clin Pharmacol 4:65-73) and 10 mM CPA. Reactions were initiated by adding the NADPH-generating system and stopped by the addition of 200 μl of 10% trichloroacetic acid. After centrifugation at 13,000 g and 4° C. for 15 min to pellet the proteins, 300 μl of the supernatant was transferred to a clean test tube containing 160 μl of the fluorescence mixture (6 mg of 3-aminophenol and 6 mg of hydroxylamine hydrochloride freshly dissolved in 1 ml of 1N HCl). […] After cooling to room temperature, fluorescence reading were performed on a Bio-tek FL600 microplate fluorescence reader (excitation at 350 nm and emission at 515 nm). […] Data were analyzed using Prism software (Graph-Pad Software, Inc., San Diego, Calif.) to calculate kinetic parameters (Km, Vmax), with Vmax values expressed as moles of product formed per minute, normalized to the moles of P450 included in each reaction (turnover number expressed as minutes^-1). Data shown were based on duplicate determinations for each data point.

[3] = double mutant, earlier publication; cited from earlier work

Molecule | Vmax of CPA-4' hydroxylation [2] [min⁻¹] | Km [2] [µM] | CPA hydroxylase activity Vmax [2] | also measured
O=P1(N(CCCl)CCCl)NCCCO1 (stereo not drawn) [CPA, cyclophosphamide] |  |  |  | change in tumour volume after CPA, uninfected TC1 tumours [1]: only a modest effect on the uninfected tumour cells and did not produce an overall reduction in tumour volume; also recorded: slowed this rapid increase in uninfected tumour cells but obtained no reduction in overall tumour size
B1 | 107.5 ± 3.4 | 510 ± 80 | 105.5 nmol 4OH-CPA/min/nmol CYP2B6 | affinity for CPA relative to wild-type enzyme ([2]; greater than wild-type): 8 times; Vmax compared with wild-type enzyme ([2]; in words): retaining the same Vmax; efficiency at metabolising CPA into cytotoxic metabolite relative to wild-type ([2]; more efficient than wild-type protein): 10 times; change in tumour volume after CPA, tumours expressing CYP2B6TM-RED [1]: dramatic reductions in tumour size
B2 | 107.3 ± 3.74 | 4330 ± 500 | 62.5 nmol 4OH-CPA/min/nmol CYP2B6 | 
B3 |  |  |  | CPA-4-hydroxylation efficiency compared to wild-type enzyme [3]: four-fold increase

— patent US9243231B2, “Mutant cytochrome P450 2B6 proteins and uses thereof” (Institut National de la Santé et de la Recherche Médicale …, priority 2011, dated 2016)
